The target in test [1] is beta-subunit of ATP synthase (F1 domain) on the cell surface of human hepatocytes (human) (UniProt P06576).
In test [2] the target is ectopic ATP synthase of rat liver (rat) (UniProt P10719). As to the kind of experiment: cell-based or functional assay.
The target in test [3] is beta-subunit of ATP synthase (F1 domain) on the cell surface of human hepatocytes (human) (UniProt P06576). In words: cell-based or functional assay.

A value given as a limit tells only on which side of the number the result lay.

Chain of beta-subunit of ATP synthase (F1 domain) on the cell surface of human hepatocytes (human) (P06576 48-529 E274Q limits assumed): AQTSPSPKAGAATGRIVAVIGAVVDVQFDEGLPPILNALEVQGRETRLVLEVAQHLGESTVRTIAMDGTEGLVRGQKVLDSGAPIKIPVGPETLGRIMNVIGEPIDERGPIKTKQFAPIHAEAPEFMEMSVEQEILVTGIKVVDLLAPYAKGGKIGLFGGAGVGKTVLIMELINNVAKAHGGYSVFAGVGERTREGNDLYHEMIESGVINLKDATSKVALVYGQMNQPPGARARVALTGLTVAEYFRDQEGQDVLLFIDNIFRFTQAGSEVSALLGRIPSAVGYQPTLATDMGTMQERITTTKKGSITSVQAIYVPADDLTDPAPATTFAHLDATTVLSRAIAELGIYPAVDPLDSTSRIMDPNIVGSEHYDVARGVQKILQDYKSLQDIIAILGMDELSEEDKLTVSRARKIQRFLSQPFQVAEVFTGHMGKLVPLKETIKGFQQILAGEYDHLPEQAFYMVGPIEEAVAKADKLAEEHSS
Chain of ectopic ATP synthase of rat liver (rat) (P10719 47-529, chain 1 of 2): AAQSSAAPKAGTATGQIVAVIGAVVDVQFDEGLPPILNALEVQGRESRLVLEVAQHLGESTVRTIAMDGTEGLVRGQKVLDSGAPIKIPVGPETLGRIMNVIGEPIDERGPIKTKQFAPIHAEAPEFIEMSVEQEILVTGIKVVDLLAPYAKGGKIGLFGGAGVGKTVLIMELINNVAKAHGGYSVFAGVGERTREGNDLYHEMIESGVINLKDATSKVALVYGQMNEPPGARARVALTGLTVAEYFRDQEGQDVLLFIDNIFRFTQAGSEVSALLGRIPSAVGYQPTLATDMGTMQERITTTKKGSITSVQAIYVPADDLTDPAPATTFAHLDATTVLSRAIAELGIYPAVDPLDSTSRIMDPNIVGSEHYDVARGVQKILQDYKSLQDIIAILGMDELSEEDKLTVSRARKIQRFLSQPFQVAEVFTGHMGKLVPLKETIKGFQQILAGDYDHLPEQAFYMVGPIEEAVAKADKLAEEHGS
Chain of ectopic ATP synthase of rat liver (rat) (P15999 44-553, chain 2 of 2, further chain): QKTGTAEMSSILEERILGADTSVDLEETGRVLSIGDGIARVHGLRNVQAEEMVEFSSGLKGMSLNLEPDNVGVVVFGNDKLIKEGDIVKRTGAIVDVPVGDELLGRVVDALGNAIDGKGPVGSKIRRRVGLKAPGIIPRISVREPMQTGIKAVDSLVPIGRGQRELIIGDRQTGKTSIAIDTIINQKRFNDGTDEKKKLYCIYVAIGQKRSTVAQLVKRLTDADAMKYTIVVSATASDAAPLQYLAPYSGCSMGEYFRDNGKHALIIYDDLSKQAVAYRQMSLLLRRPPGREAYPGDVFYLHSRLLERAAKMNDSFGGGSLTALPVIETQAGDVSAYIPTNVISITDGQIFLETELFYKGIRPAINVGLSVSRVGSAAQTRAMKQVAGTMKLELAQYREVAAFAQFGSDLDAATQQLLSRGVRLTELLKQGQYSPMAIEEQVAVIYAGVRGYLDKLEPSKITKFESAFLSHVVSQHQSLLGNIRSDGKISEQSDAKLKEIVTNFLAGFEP

B1: IF1 protein, natural inhibitor protein of mitochondrial F1-ATPase (protein, UniProt P01096 26-109, looked up, species assumed)
ATPase inhibitor, mitochondrial: GSESGDNVRSSAGAVRDAGGAFGKREQAEEERYFRARAKEQLAALKKHHENEISHHAKEIERLQKEIERHKQSIKKLKQSEDDD
In turn, B1 gave an IC50 (read off the curve), 125I-TG-HDL2 internalisation by HepG2 cells, without apoA-I in test [1] of 8 nM. Further, the TG-HDL2 internalisation by perfused rat liver, 45 min, 1 µM IF1 in test [2] was below 45 % decrease. Besides, the [α-32P]-ADP generated from [α-32P]-ATP at the HepG2 cell surface (HPLC), 100 nM IF1 in test [3] was 48 % decrease.
